Source: publication PMC4891260 (2015)

Target: T1, DEAD box helicase p68 S551F (mp68) peptide on H-2Kb (mouse)
T1 peptide: SNFVFAGI
Test: killing

B1: 1D9 TCR (TCR)
alpha TRAV1 TRAJ30 CDR3: CAVRSDTNAYKVIF
beta TRBV19 TRBJ2-7 CDR3: CASSKRLSSYEQYF
- binding result: recognises
